In the assay the target is T1, biotinylated HLA-G (monomer) refolded with human beta2 microglobulin and peptide … (human, biotinylated with BirA; site not stated).
T1 construct: also called wild-type HLA-G
The experiment in a line: SPR (BIAcore 2000), equilibrium response against LIR2 concentration, fitted binding isotherm; biotinylated HLA-G immobilised via streptavidin, BSA control cell subtracted. Here is the method: Surface plasmon resonance experiment was conducted for HLA-G and LILRB2 (LIR2), using BIAcore 2000° (BIAcore AB, St Albans, England). First, streptavidin was covalently immobilized on a laboratory sensor chip CM5 (BIAcore AB), and the biotinylated HLA-G and the negative control BSA were immobilized via the streptavidin. Then, LILRB2 (LIR2) dissolved in the running buffer HBS-EP (10 mM HEPES, pH 7.5, 150 mM sodium chloride, 3.4 mM EDTA, 0.005% Surfactant P20) was flown at 10 μL/min. The binding response at each concentration was calculated by subtracting the measured response in a control flow cell from the response in a sample flow cell. Binding constant (Kd) was obtained by Scatchard analysis, or by the nonlinear curve fitting of standard Langmuir binding isotherm, using ORIGIN 5 (Microcal Software).
On the technique in general: In SPR one partner is held on a chip, and binding of the other changes the refractive index at the surface.

B1: LILRB2 (LIR2) (receptor, UniProt Q8N423 24-220, looked up)
chain: GTIPKPTLWAEPDSVITQGSPVTLSCQGSLEAQEYRLYREKKSASWITRIRPELVKNGQFHIPSITWEHTGRYGCQYYSRARWSELSDPLVLVMTGAYPKPTLSAQPSPVVTSGGRVTLQCESQVAFGGFILCKEGEDEHPQCLNSQPHARGSSRAIFSVGPVSPNRRWSHRCYGYDLNSPYVWSSPSDLLELLVPG
notes: domain: ILT4D1D2; also called leukocyte Ig-like receptor B2; ILT4
As a reminder, the Kd is the equilibrium constant for the complex coming apart. On to B1, for which binding was characterised by a dissociation constant (Kd) of 4.1 µM.

The values above are taken from patent publication US20120094914A1 (KYUSHU UNIVERSITY NATIONAL UNIVERSITY, published 2012).
